4 substances from publication PMC3873559 can be followed below.

The target of this assay is human factor Xa (plasma-derived) (human). As to the kind of experiment: kinetic titration of prothrombinase (thrombin generation read with a chromogenic substrate); apparent KD; limiting fXa (15 pM), fV/fVa species varied (30 pM to 10 nM; 0 to 15 nM by the legend of Fig. 4), PCPS vesicles 20 μM, DAPA 3 μM, prothrombin 1.4 μM, Spectrozyme-TH 0.4 mM; fitted to a one binding site model.
human factor Xa (plasma-derived) (human), sequence (P00742 whole entry): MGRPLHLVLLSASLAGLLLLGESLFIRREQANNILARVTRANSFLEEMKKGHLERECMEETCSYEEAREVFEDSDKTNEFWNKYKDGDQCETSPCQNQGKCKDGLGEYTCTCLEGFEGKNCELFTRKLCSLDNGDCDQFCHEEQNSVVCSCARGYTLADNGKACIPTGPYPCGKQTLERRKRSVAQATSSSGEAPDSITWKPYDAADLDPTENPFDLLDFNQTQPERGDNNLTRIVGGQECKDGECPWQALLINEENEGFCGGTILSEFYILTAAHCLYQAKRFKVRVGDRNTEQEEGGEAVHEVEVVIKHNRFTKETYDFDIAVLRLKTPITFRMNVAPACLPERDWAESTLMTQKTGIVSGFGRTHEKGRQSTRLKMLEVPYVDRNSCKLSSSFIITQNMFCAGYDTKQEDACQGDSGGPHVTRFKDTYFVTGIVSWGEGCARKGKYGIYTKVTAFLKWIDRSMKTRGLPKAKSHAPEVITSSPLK

Take “wild type recombinant human fV incubated with thrombin (fVa^WT) (from UniProt P12259 29-737; P12259 1574-2224) (complex)”: the Kd worked out at 0.28 nM.
As for “recombinant human fV with region 1000–1008 deleted and the thrombin activation cleavage sites (Arg709/Arg1018/Arg1545) mutated to glutamine (fV^ΔB9/Q3) (from UniProt P12259 29-2224) (natural protein)”, the figure is 0.73 nM; as for “recombinant human fV with Arg1018 and Arg1545 mutated to glutamine following incubation with thrombin (fVa^RQQ) (from UniProt P12259 29-737; P12259 738-2224) (complex)”, 0.92 nM; as for “fVa purified from pooled fresh frozen normal plasma (fVa^plasma) (from UniProt P12259 29-737; P12259 1574-2224) (complex)”, 0.51 nM.
